Data: publication doi:10.1101/816264

Target: mouse ASIC1a wild type (mouse) (UniProt Q6NXK8)
Sequence of UniProt Q6NXK8 (Q6NXK8 whole entry): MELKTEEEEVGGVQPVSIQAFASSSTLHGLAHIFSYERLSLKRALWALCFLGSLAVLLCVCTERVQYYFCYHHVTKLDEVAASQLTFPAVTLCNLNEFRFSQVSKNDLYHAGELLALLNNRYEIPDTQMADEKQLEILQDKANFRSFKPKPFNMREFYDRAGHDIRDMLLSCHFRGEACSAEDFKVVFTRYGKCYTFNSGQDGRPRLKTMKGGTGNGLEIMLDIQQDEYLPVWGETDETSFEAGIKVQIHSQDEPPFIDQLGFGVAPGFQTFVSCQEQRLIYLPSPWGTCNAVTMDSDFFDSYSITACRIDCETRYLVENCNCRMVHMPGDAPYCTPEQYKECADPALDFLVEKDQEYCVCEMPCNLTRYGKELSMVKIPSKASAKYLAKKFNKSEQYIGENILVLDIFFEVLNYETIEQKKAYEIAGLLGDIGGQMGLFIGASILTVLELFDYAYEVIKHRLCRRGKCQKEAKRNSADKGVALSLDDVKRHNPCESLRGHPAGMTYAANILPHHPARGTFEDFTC

fold increase of the EC50 of current rescue against BigDyn (TEVC): > 50 fold
Substance: BigDyn Arg9Ala (peptide)
